Data published in patent US20230114801A1 (SYSTIMMUNE, published 2023).

Experiments:
human EGFR [1] = target: T1, human EGFR (human, UniProt P00533 25-645, limits assumed); assay: BLI (Octet), binder on AHC sensor, 100 nM human antigen, 1:1 fit
T1 construct: Soluble antigen in Octet; construct not described

human CD3 [2] = target: T2, human CD3 (human, UniProt P07766 23-126; P04234 22-105); assay: as above
T2 construct: also called His-tagged human CD3; human CD3 (Acro CDD-H52W1)

human HER3 = target: T3, human HER3 (human, UniProt P21860 20-643); assay: as above
T3 construct: Soluble antigen in Octet; bought; also called human HER3 (Acro ER3-H5223)

human CD3 [3] = target: T2, human CD3; assay: BLI (Octet), binder on AHC sensor, 100 nM human CD3, 1:1 fit
human EGFR [4] = target: T1, human EGFR; assay: BLI (Octet), binder on AHC sensor, 200 nM human EGFR, 1:1 fit

Row | Kd (human EGFR [1]) [nM] | Kd (human CD3 [2]) [nM] | Kd (human HER3) [nM] | Kd (human CD3 [3]) [nM] | Kd (human EGFR [4]) [nM] | Binder
1 | 2.72 | 47.3 | 93.8 |  |  | SI-75X18 (other, tri-miniGNC; D3 αCD3* (Fab), D4 αEGFR, D5 αHER3) chain 1: QVQLQESGGRLVQPGEPLSLTCKTSGIDLSSNAIGWVRQAPGKGLEWIGVIFGSGNTYYASWAKGRFTISRSTSTVYLKMNSLRSEDTAIYYCARGGYSSDIWGQGTLVTVSSASTKGPSVFPLAPSSKSTSGGTAALGCLVKDYFPEPVTVSWNSGALTSGVHTFPAVLQSSGLYSLSSVVTVPSSSLGTQTYICNVNHKPSNTKVDKRVEPKSCDKTHTCPPCPAPEAAGGPSVFLFPPKPKDTLMISRTPEVTCVVVDVSHEDPEVKFNWYVDGVEVHNAKTKPREEQYNSTYRVVSVLTVLHQDWLNGKEYKCAVSNKALPAPIEKTISKAKGQPREPQVYTLPPSRDELTKNQVSLSCAVKGFYPSDIAVEWESNGQPENNYKTTPPVLDSDGSFFLVSKLTVDKSRWQQGNVFSCSVMHEALHNHYTQKSLSLSPGGGGGSGGGGSQVQLQQSGPGLVKPSETLSITCTVSGFSLTNYGVHWIRQAPGKGLEWLGVIWSGGNTDYNTPFTSRFTITKDNSKNQVYFKLRSVRADDTAIYYCARALTYYDYEFAYWGQGTLVTVSSGGGGSGGGGSGGGGSGGGGSEIVLTQSPSTLSVSPGERATFSCRASQSIGTNIHWYQQKPGKPPRLLIKYASESISGIPDRFSGSGSGTEFTLTISSVQSEDFAVYYCQQNNNWPTTFGPGTKLTVL chain 2: DPQLTQSPSSLSATVGQRVTINCQSSQSVAKNNNLAWFQQKPGKPPKLLIYSASTLAAGVPSRFSGSGSGTQFTLTITRVQSEDFATYYCSARDSGNIQSFGGGTRVEIKRTVAAPSVFIFPPSDEQLKSGTASVVCLLNNFYPREAKVQWKVDNALQSGNSQESVTEQDSKDSTYSLSSTLTLSKADYEKHKVYACEVTHQGLSSPVTKSFNRGECGGDKTHTCPPCPAPEAAGGPSVFLFPPKPKDTLMISRTPEVTCVVVDVSHEDPEVKFNWYVDGVEVHNAKTKPREEQYNSTYRVVSVLTVLHQDWLNGKEYKCAVSNKALPAPIEKTISKAKGQPREPQVYTLPPSRDELTKNQVSLWCLVKGFYPSDIAVEWESNGQPENNYKTTPPVLDSDGSFFLYSKLTVDKSRWQQGNVFSCSVMHEALHNRFTQKSLSLSPGGGGGSGGGGSQVQLQESGGGLVKPGGSLSLSCAASGFTFSSYWMSWVRQAPGKGLEWVANINRDGSASYYVDSVKGRFTISRDDAKNSLYLQMNSLRAEDTAVYYCARDRGVGYFDLWGRGTLVTVSSGGGGSGGGGSGGGGSQSALTQPASVSGSPGQSITISCTGTSSDVGGYNFVSWYQQHPGKAPKLMIYDVSDRPSGVSDRFSGSKSGNTASLIISGLQADDEADYYCSSYGSSSTHVIFGGGTKVTVL
2 | 6.8 | 33.4 | 113 |  |  | SI-75X16 (other, tri-miniGNC; D1 αEGFR, D2 αHER3, D3 αCD3* (Fab)) chain 1: EIVLTQSPSTLSVSPGERATFSCRASQSIGTNIHWYQQKPGKPPRLLIKYASESISGIPDRFSGSGSGTEFTLTISSVQSEDFAVYYCQQNNNWPTTFGPGTKLTVLGGGGSGGGGSGGGGSGGGGSQVQLQQSGPGLVKPSETLSITCTVSGFSLTNYGVHWIRQAPGKGLEWLGVIWSGGNTDYNTPFTSRFTITKDNSKNQVYFKLRSVRADDTAIYYCARALTYYDYEFAYWGQGTLVTVSSGGGGSGGGGSQVQLQESGGRLVQPGEPLSLTCKTSGIDLSSNAIGWVRQAPGKGLEWIGVIFGSGNTYYASWAKGRFTISRSTSTVYLKMNSLRSEDTAIYYCARGGYSSDIWGQGTLVTVSSASTKGPSVFPLAPSSKSTSGGTAALGCLVKDYFPEPVTVSWNSGALTSGVHTFPAVLQSSGLYSLSSVVTVPSSSLGTQTYICNVNHKPSNTKVDKRVEPKSCDKTHTCPPCPAPEAAGGPSVFLFPPKPKDTLMISRTPEVTCVVVDVSHEDPEVKFNWYVDGVEVHNAKTKPREEQYNSTYRVVSVLTVLHQDWLNGKEYKCAVSNKALPAPIEKTISKAKGQPREPQVYTLPPSRDELTKNQVSLSCAVKGFYPSDIAVEWESNGQPENNYKTTPPVLDSDGSFFLVSKLTVDKSRWQQGNVFSCSVMHEALHNHYTQKSLSLSPG chain 2: QSALTQPASVSGSPGQSITISCTGTSSDVGGYNFVSWYQQHPGKAPKLMIYDVSDRPSGVSDRFSGSKSGNTASLIISGLQADDEADYYCSSYGSSSTHVIFGGGTKVTVLGGGGSGGGGSGGGGSGGGGSQVQLQESGGGLVKPGGSLSLSCAASGFTFSSYWMSWVRQAPGKGLEWVANINRDGSASYYVDSVKGRFTISRDDAKNSLYLQMNSLRAEDTAVYYCARDRGVGYFDLWGRGTLVTVSSGGGGSGGGGSDPQLTQSPSSLSATVGQRVTINCQSSQSVAKNNNLAWFQQKPGKPPKLLIYSASTLAAGVPSRFSGSGSGTQFTLTITRVQSEDFATYYCSARDSGNIQSFGGGTRVEIKRTVAAPSVFIFPPSDEQLKSGTASVVCLLNNFYPREAKVQWKVDNALQSGNSQESVTEQDSKDSTYSLSSTLTLSKADYEKHKVYACEVTHQGLSSPVTKSFNRGECGGDKTHTCPPCPAPEAAGGPSVFLFPPKPKDTLMISRTPEVTCVVVDVSHEDPEVKFNWYVDGVEVHNAKTKPREEQYNSTYRVVSVLTVLHQDWLNGKEYKCAVSNKALPAPIEKTISKAKGQPREPQVYTLPPSRDELTKNQVSLWCLVKGFYPSDIAVEWESNGQPENNYKTTPPVLDSDGSFFLYSKLTVDKSRWQQGNVFSCSVMHEALHNRFTQKSLSLSPG
3 |  |  |  | 56 | 34 | SI-75X13 (bispecific antibody, human IgG1, kappa, L234A L235A, bi-miniGNC; D3 αCD3* (Fab), D4 αEGFR VHH) chain 1: QVQLQESGGRLVQPGEPLSLTCKTSGIDLSSNAIGWVRQAPGKGLEWIGVIFGSGNTYYASWAKGRFTISRSTSTVYLKMNSLRSEDTAIYYCARGGYSSDIWGQGTLVTVSSASTKGPSVFPLAPSSKSTSGGTAALGCLVKDYFPEPVTVSWNSGALTSGVHTFPAVLQSSGLYSLSSVVTVPSSSLGTQTYICNVNHKPSNTKVDKRVEPKSCDKTHTCPPCPAPEAAGGPSVFLFPPKPKDTLMISRTPEVTCVVVDVSHEDPEVKFNWYVDGVEVHNAKTKPREEQYNSTYRVVSVLTVLHQDWLNGKEYKCAVSNKALPAPIEKTISKAKGQPREPQVYTLPPSRDELTKNQVSLSCAVKGFYPSDIAVEWESNGQPENNYKTTPPVLDSDGSFFLVSKLTVDKSRWQQGNVFSCSVMHEALHNHYTQKSLSLSPGGGGGSGGGGSEVQLQESGGGLVQAGDSLSLSCLVSGRSFNSYTMGWFRQAPGKEREFVAAILWSGPTTYYADSVKGRFTISRDNAKNTVYLQMNSLKPEDTAVYYCAAALGVLVLAPGNVYSYWGQGTQVTVSS chain 2: DPQLTQSPSSLSATVGQRVTINCQSSQSVAKNNNLAWFQQKPGKPPKLLIYSASTLAAGVPSRFSGSGSGTQFTLTITRVQSEDFATYYCSARDSGNIQSFGGGTRVEIKRTVAAPSVFIFPPSDEQLKSGTASVVCLLNNFYPREAKVQWKVDNALQSGNSQESVTEQDSKDSTYSLSSTLTLSKADYEKHKVYACEVTHQGLSSPVTKSFNRGECGGDKTHTCPPCPAPEAAGGPSVFLFPPKPKDTLMISRTPEVTCVVVDVSHEDPEVKFNWYVDGVEVHNAKTKPREEQYNSTYRVVSVLTVLHQDWLNGKEYKCAVSNKALPAPIEKTISKAKGQPREPQVYTLPPSRDELTKNQVSLWCLVKGFYPSDIAVEWESNGQPENNYKTTPPVLDSDGSFFLYSKLTVDKSRWQQGNVFSCSVMHEALHNRFTQKSLSLSPG
4 |  |  |  | 65.7 | 21.6 | SI-75X11 (bispecific antibody, human IgG1, kappa, L234A L235A, bi-miniGNC; D1 αEGFR VHH, D3 αCD3* (Fab)) chain 1: EVQLQESGGGLVQAGDSLSLSCLVSGRSFNSYTMGWFRQAPGKEREFVAAILWSGPTTYYADSVKGRFTISRDNAKNTVYLQMNSLKPEDTAVYYCAAALGVLVLAPGNVYSYWGQGTQVTVSSGGGGSGGGGSQVQLQESGGRLVQPGEPLSLTCKTSGIDLSSNAIGWVRQAPGKGLEWIGVIFGSGNTYYASWAKGRFTISRSTSTVYLKMNSLRSEDTAIYYCARGGYSSDIWGQGTLVTVSSASTKGPSVFPLAPSSKSTSGGTAALGCLVKDYFPEPVTVSWNSGALTSGVHTFPAVLQSSGLYSLSSVVTVPSSSLGTQTYICNVNHKPSNTKVDKRVEPKSCDKTHTCPPCPAPEAAGGPSVFLFPPKPKDTLMISRTPEVTCVVVDVSHEDPEVKFNWYVDGVEVHNAKTKPREEQYNSTYRVVSVLTVLHQDWLNGKEYKCAVSNKALPAPIEKTISKAKGQPREPQVYTLPPSRDELTKNQVSLSCAVKGFYPSDIAVEWESNGQPENNYKTTPPVLDSDGSFFLVSKLTVDKSRWQQGNVFSCSVMHEALHNHYTQKSLSLSPG chain 2: DPQLTQSPSSLSATVGQRVTINCQSSQSVAKNNNLAWFQQKPGKPPKLLIYSASTLAAGVPSRFSGSGSGTQFTLTITRVQSEDFATYYCSARDSGNIQSFGGGTRVEIKRTVAAPSVFIFPPSDEQLKSGTASVVCLLNNFYPREAKVQWKVDNALQSGNSQESVTEQDSKDSTYSLSSTLTLSKADYEKHKVYACEVTHQGLSSPVTKSFNRGECGGDKTHTCPPCPAPEAAGGPSVFLFPPKPKDTLMISRTPEVTCVVVDVSHEDPEVKFNWYVDGVEVHNAKTKPREEQYNSTYRVVSVLTVLHQDWLNGKEYKCAVSNKALPAPIEKTISKAKGQPREPQVYTLPPSRDELTKNQVSLWCLVKGFYPSDIAVEWESNGQPENNYKTTPPVLDSDGSFFLYSKLTVDKSRWQQGNVFSCSVMHEALHNRFTQKSLSLSPG
